{
  "source": "patent US20260217849A1",
  "about": "(SHANGHAI HUAOTA BIOPHARMACEUTICAL, published 2026)",
  "key": {"[1]": {"molecular_target": "T1, human CD73 antigen protein (ACRO Biosystems, Catalog No. CD3-H52H7) (human, UniProt P21589 27-547)", "T1 construct": "Bought protein; also called Human CD73 dimer protein; human CD73 protein", "T1 sequence (looked up)": "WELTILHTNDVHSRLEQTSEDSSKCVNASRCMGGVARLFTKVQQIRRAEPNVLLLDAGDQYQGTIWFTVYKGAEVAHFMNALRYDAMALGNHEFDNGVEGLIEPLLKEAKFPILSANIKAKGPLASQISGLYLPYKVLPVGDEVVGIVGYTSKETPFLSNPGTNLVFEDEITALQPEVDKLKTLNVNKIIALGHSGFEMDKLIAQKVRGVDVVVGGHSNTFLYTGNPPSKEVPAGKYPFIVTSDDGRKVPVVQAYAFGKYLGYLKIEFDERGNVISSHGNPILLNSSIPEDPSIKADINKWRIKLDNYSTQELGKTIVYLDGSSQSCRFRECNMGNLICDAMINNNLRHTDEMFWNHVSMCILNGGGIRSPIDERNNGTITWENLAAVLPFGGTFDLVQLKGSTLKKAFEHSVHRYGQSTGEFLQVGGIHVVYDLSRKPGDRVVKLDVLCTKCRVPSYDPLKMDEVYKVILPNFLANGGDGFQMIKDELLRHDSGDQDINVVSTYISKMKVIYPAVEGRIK", "assay": "SPR BIAcore 8k, CD73 captured as ligand, analyte 1 buffer, analyte 2 900698", "excerpt": "(§1) First, the human CD73 antigen protein (manufacturer: ACRO Biosystems, Catalog No. CD3-H52H7) was captured as a ligand using BIAcore 8k, and then the antibodies were used as analytes."}, "[2]": {"molecular_target": "T1, human CD73 antigen protein (ACRO …)", "assay": "SPR BIAcore 8k, CD73 captured as ligand, 900725 added first (competitor), then 900698", "excerpt": "as §1"}, "[3]": {"molecular_target": "T1, human CD73 antigen protein (ACRO …)", "assay": "SPR BIAcore 8k, CD73 captured as ligand, analyte 1 buffer, analyte 2 900725", "excerpt": "as §1"}, "[4]": {"molecular_target": "T1, human CD73 antigen protein (ACRO …)", "assay": "SPR BIAcore 8k, CD73 captured as ligand, 900698 added first (competitor), then 900725", "excerpt": "as §1"}},
  "data": [
    {"binder": "900698 (antibody, human IgG1, kappa, L234A L235A, V domains shown, also called component of the anti-CD73 cocktail antibody) VH: QVQLVESGGGLVKPGGSLRLSCAASGFTFSKYAMSWIRQAPGKGLEWVAEISSGGGYINYADSVKGRFTISRDNAKNSLYLQMNSLRAEDTAVYYCARAIYYYGSSYNYYAMDYWGQGTTVTVSS VL: DIQMTQSPSSLSASVGDRVTITCRASQDVGTAEAWYQQKPGKAPKLLIYWASTRHTGVPSRFSGSGSGTDFTLTISSLQPEDFATYYCQQYSSYPLTFGQGTKLEIKR", "values": [
      {"measurement": "Kd", "setting": "[1]", "value": 7.3, "unit": "nM"},
      {"measurement": "koff", "setting": "[1]", "value": 0.00114, "unit": "s⁻¹"},
      {"measurement": "kon", "setting": "[1]", "value": 156000, "unit": "M⁻¹ s⁻¹"},
      {"measurement": "Kd", "setting": "[2]", "value": 12.6, "unit": "nM"},
      {"measurement": "koff", "setting": "[2]", "value": 0.0017, "unit": "s⁻¹"},
      {"measurement": "kon", "setting": "[2]", "value": 135000, "unit": "M⁻¹ s⁻¹"}
    ]},
    {"binder": "900725 (antibody, human IgG1, kappa, L234A L235A, V domains shown, also called component of the anti-CD73 cocktail antibody) VH: QVQLVQSGAEVKKPGASVKLSCKASGYTFTSYWIHWVRQAPGQGLEWIGMIHPNSGSTYYNEKFKGRATLTVDKSTSTAYMELSSLRSEDTAVYYCARYYGSDYEWYFDVWGQGTTVTVSS VL: DIQMTQSPSSMSASVGDRVTITCKASQNVRTAVVWYQQKPGKAPKALIYLASNRHTGVPDRFSGSGSGTDFTLTISSLQPEDFATYFCLQHWNYPYTFGQGTKLEIKR", "values": [
      {"measurement": "Kd", "setting": "[3]", "value": 3.01, "unit": "nM"},
      {"measurement": "koff", "setting": "[3]", "value": 0.00452, "unit": "s⁻¹"},
      {"measurement": "kon", "setting": "[3]", "value": "1.5e+06", "unit": "M⁻¹ s⁻¹"},
      {"measurement": "Kd", "setting": "[4]", "value": 4.16, "unit": "nM"},
      {"measurement": "koff", "setting": "[4]", "value": 0.00591, "unit": "s⁻¹"},
      {"measurement": "kon", "setting": "[4]", "value": "1.42e+06", "unit": "M⁻¹ s⁻¹"}
    ]}
  ]
}
